# Results as given in US20230140200A1, “COMPOSITIONS AND METHODS FOR DETECTING CELLS UNDERGOING FERROPTOSIS USING AN ANTIBODY” (THE TRUSTEES OF COLUMBIA UNIVERSITY IN THE CITY OF NEW YORK, priority 2020, published 2023).
# B1: 3F3-FMA: Murine monoclonal IgG1 raised against ferroptotic membrane fractions; antigen is transferrin receptor protein 1 (TfR1) (antibody, V domains shown)
# VH: EVLLQQSGTELVRPGALVKLSCKASGFNIQDLYIHWVKQRPEQGLEWIGWIDPETDNTIYDPKFQGKASITADTSSNTAYLQLSSLTSEDTAMYYCSTGLLQWYFDVWGAGTAVTVSS
# VL: DIVMTQSPSSLAMSIGQKVTMRCKSSQSLLNSYNQKNCLAWYQQKPGQSPKLLLYFVSTRESGVPDRFIGSGSGTDFTLTISSVQAEDLADYFCQQHYSTPLTFGAGTKLELK
# Legend:
# TfR1 = test: Western blot of TfR1 during ferroptosis; type: cell-based, human; details: RSL3-induced and IKE-induced ferroptosis, HT-1080 cells
# Description: HT-1080 cells were seeded in DMEM (Corning 10-013-CM) and 10% Hi-FBS with 1% penicillin and streptomycin (PS) with 1% MEM Non-Essential Amino Acids Solution (100×) (Thermo Fisher Scientific 11140-076) 16 h prior to use. DMSO or 1 μM of RSL3 was added and incubated for 4 h. Following treatment, the medium was aspirated from each dish and cells were washed twice with PBS. Cells were lysed with 70 μl lysis buffer (RIPA buffer from ThermoFisher, cat. 89900, 1 mM EDTA, 1 mM PMSF, 1× Halt™ protease inhibitor cocktail from ThermoFisher, cat. 78430 and 1× Halt™ phosphatase inhibitor cocktail from ThermoFisher, cat. 78426). Unlysed cells and debris were pelleted for 15 min at 16,000×g at 4° C. Samples were separated using SDS-PAGE and transferred to a polyvinylidene difluoride membrane. Transfer was performed using the iBlot2 system (Invitrogen). […]
# SK-BR-3 cells = test: Immunofluorescence in SK-BR-3 cells; type: cell-based, human; details: 1 μM RSL3, 4 h
molecule,measurement,setting,value
B1,intensity of western blot bands during ferroptosis,TfR1,increased intensity of the bands
same,3F3-FMA staining upon ferroptosis induction,SK-BR-3 cells,concentrated at the cell boundaries and became brighter
